Experimental data reported in the domain aggregation screens of Martell et al. (2025).

Assay: soluble fraction after stress (log2 fold change); higher = more stays soluble; pooled small domains, quantitative proteomics
Settings: stress: 75 degC
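Note: 20 min heating vs room temperature control held 20 min.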

Sequence | soluble fraction (log2)
HMLYEDVQVPNVRYWKSRDAKKQLEDLGLRVLTEHVNDAYIQSDQVIRTSPEIGDTLRTGDTVTLYVSDG | 0.163
HMMKLSKRQEQIIAVVKEHQPVSGERISDILAVSRATLRSDLSFLTLSGILKASPKVGYTYES | -3.4
HMMLVKKMLNGIMMKEITIKELADQYDVSTRTIQLKIKKLGYEWDSKESIYRYVGKESEPLDVDFSTLI | -3
HMMQEIKLEVINNEELRIDNYINLAGIGLSRSYIQKLIKDGVILVNGKEVKSSYKVSLGDIISVQIPDPG | -0.436
HMMVIMRANATEPQIANVVAYVEKNGLNAHLSRGAERTVIGVVGDIRRVSKETFELMDGVDSVMRIS | -0.631
HMNADKEALIAAAYRNSLIENFGTENVERYEERFNKWADKHDRQGMPMYPTIEKWMNEDNIA | 0.0631
HMNADRIVGQTAKVIHPITPDEKGRVMVDNLDWAAAAQNRGESFEVGEEVSIVRIEGVTVYVQK | -0.234
HMNADTVIGKAGTVIEKIDNVAATGAVKIDGKVWTARSERDNITIDEGTLVKAMAIEGVKLIVEPVT | 0.139
HMNAEGLIGREAVALTAVDAHGGRVRLGGEEWSARLSKENGGVSRLSVGDPVRVTDIDGAIAVVAP | 0.118
HMNAEQLAQVRRQKIGFIFQDFRLFPEYTVRDNILIPFYLDHRAPDEQMLHKLTGILGIAGKLHSRPAQL | -0.181
HMNAKVVAPIPGTVLSIDIKVGDVIKIGDRLLVLEAMKMENNIASEKSGTVTAVHVKVGQQVLQNELMIEL | -2.17
HMNALNDLESKIFEEVVKAPEIIMNMTIREFASTVHASPTTIVRMTHKLGFSGWNELKTYLQKQKHQIS | -1.72
HMNALREVNTSILNVRSGAGTNYSKIGSLTQATRVSVISESNGWSKINYNGKVGYVSSQYLS | -1.53
HMNAMKPVLTVSLGVHTDSLSRRLNEEGIIYRWQQAASEQLLLVDSESSSERIAELIHDWRLEQSSS | -0.0158
HMNANTILNSQRILTQLGFNPGPIDGAFGAKTKGALNAFYTSIGKSYDGLLDSNELVELQKALDVSGLKN | -0.524
HMNDADAHASVDAALKHLEALAETTPEVRAALELVRRGPDGRVTVDSFARVAEALREISIAVGAS | 0.024
HMNDELMEQIDEWHKAEKHQEIIDALEQIPEAERDFETTGFLARAYNNIEEYAKAADLLESVRE | 0.0973
HMNDGEIAAPVSGTLQSFKVEDGQTVSEGDLVAVMEAMKMETQILATKGGTIRLLVKEGDYLQAGHALMTI | -0.667
HMNDGTIRVGTNVTIKPSAKRWATGQNIYYGVKGKTYKVIQMNGNRLLLDKVISWINKGDVYVPGS | -0.741
HMNDIDRFIEALIEQDTLPGTNSRINEDVISEMKMMTSVEDIKAYAIATVGLTGGQVNNALINSGL | -0.072
HMNDIVKIYTTHRIINIEGLAKNEPIMLYTINGTLIDKSVSSNGSAQLHVKGIGVYLVKWANNIVKVIVPN | -4.81
HMNDLDSLWDIWENLNERGIGDKSEEGQELRDAIREFIDTNELNVRVTRNKTNEDLLTDIEDALEVAKNS | -0.588
HMNDLIFSTLAEYDRDTITEIISVVDNTRGIGYEVELVRKDLIAMAAQAEARRDYLPSVIGDVEVFKRNLL | 0.354
HMNDNQNKQMLWELLKDNRAFDNFDNKDYKTIIHLFNETVNTIDHRTPNLDLIKKNKIFIQDIMQKLSNL | -1.46

Sequence | soluble fraction (log2)
HMNDSGIIGVVINDHEKYEGHVLEDGFISSSLSALSREIDVAGYFMMVKTVVYEGFFQELKGIGNV | 0.16
HMNDTNEEAVLSIILKNPQATQGAIAKEVGASLSTVKRIMRNLQKSGKLRREGTNRNGSWVVTGQK | -0.289
HMNDTPPELRAALDLLGLKWPLASVELRARYKDLAKQHHPDATGGDKQAEERLKDINRAYSLLKHRLAKQ | -0.143
HMNDTVGMNIRRLRKERGMTQGDLADKAGIQRETISKYESNKLTPPSYNLESIEKALKVPAGTLAQ | 0.176
HMNDYIGVDRAKEIALNHARMNESDVQFAKAKLENDDGVVEYEIEFYFGRTEYDYTIDAVSGNIIEYDVEY | -1.86
HMNEDDQLLKVLLAEPLRLEELYNLDLKPQGPYNLQTWIMVHLTELERDGLIARFPDGRYGPAR | -2.03
HMNEFAYLIKISPEHNNNRYYRMVAEGDNFRIEMGRIGASPVQMKRPMYLWNETYQKKLQEGYTDRTSYTS | -1.85
HMNEIDLEAAKRIALQNAGVESADAAFTKAQLDYDDGVAEYEIEFVAGSTKYEYEISAANGTVLKSSKESV | -0.0387
HMNEIEIHINKLFGKISDSKRKQELMQEITQNLNEKVSDLVSQGQTREQAVKKAIEDFGDIDDLKDELDN | 0.312
HMNEIYHQIKVDNVSDDDISLFQYSGIEFDHADYRRGEYIEFAISNRDLSILNNLGYEYQVVHH | -0.872
HMNEKAALIFNEWSDFVSKDDEANAQIKFDELITLYKKTGYTKIALLEVATKQASNGDIEGALAKYSLLID | 0.128
HMNEKTGTLTVYSSPGWAKVYIDGEYKGITPVMANLTYGDHYVKLTLDGYDSIGNHIDVNSPDQSYTGKF | -0.768
HMNELIGVEQLQDLREAIADHGFAEQRVLNWLYQATKGQVSRLEQLPLPMLTTLHKKLGQWADAEAAASSA | 0.3
HMNELVEATITTQTGRLDKVLTTIFPQYSRSQIQQLLEQGNILVNETLQKGKYKVKAGDKISLTEPAIKE | 0.331
HMNEMSDTITRLLDAAETGIRLRGYHAVSFRDLAEELGIKSSSVHYYFRQKEDLGLAVVERY | 0.000622
HMNENDPRVIKTRRLLLDSFVVLVRKKDFTSISVKDITDSAQVNRATFYAHFQDKYDILEYMVID | 0.0912
HMNENNFIVAMRERLAQFIETSGTSQSRIAKELGVSKSTVSLFLGGTYGGNNQELARNLEQLLSMGAARR | -1.45
HMNEPMITEVKRINYGSIKEIAKNLDVFKGKNGTVIIDERTNTLILTDLSENIEKMLWSIEITD | -0.927
HMNERTKIPLRKIEIGQAVYVDTLEKVGTVIDIQGKQFKVDLAGLPITVAARNLFYPLPQEAKP | -0.736
HMNESADMPDVVNMSLEAAKSQLEGMGLKVKVENVEDDSVEENHVIKTSPVSGEKVKLGTTVTLTVSKGR | -0.116
HMNESEALIARIENLPPIEDLTEKHAEEVKALMTVYSKLKMSDRILVTNYGVLKKDFDALVKKGFLTNED | -0.321
HMNETHANKVYNFLKKKKKPLSAYEILKELASEGISAPTTIYRALNKLVSNGLIHKIESLNAWTV | 0.251
HMNETLKQIRINALQYSEKDMATKLGLPLSEYKEIENDKPLNFTLLIRLSQAVGKTIDDLLNAQ | -0.95
HMNEVETWSVQADGATGRIDKWLAEQNEWSRSQVQEWLKAGRVEVDGRVVKPNYKLSGTESIAVHIPEAV | -0.244

Sequence | soluble fraction (log2)
HMNEWVSVEERLPTDERPVLAFIGYADTMNGFITTSYYFRFDPDPHWLGEGLIPVGLKTLFWMPLPAP | 0.277
HMNEYSLVPDIYGMTYDDALSSLRNVGLDGRLALASTNEDLANADTRVVWQSKEAGSIIDKGSNVMFVID | -0.01
HMNFAERIKELRKEKGITQIDLAEAVGLSKGTVAMWEVDKREANFDTLNKLSDYFQVSIDYLLGRSNDRS | -0.0785
HMNFDVETGLPLDSRLVVSGLIQRDGINSLKRYEGMIVYVESEAKNYQLVGGISNTDWAELS | -1.35
HMNFGEVLQTKRKSMGLTQEDLADKLFVSSETISNWETNKTTPDIDNVIRISQLFDISLNNLLL | -0.415
HMNFIPGEKINLKIVQEGKEKNQGVGYLSDGTMVIVENGSQKLGQDVEVVVIKNIQSSAGKIVFGDISK | 0.158
HMNFSRQREIIYEQVRNFPVHPTAEEVYRALKNDNPNLSLGTVYRNLNQLSEAGMLLKIPIADGSDRFDGR | -0.655
HMNFTETENRIYEEILKNVKQHKKKTVVQIAEKVDVAPSYVIKVAKKLGYSGLNEMWYSLSGIY | -0.916
HMNFTMERLYTKELTSEDIDEIKKELNSMGYTEGVEFNIIKGDKTSFIMAERQLKAKMLSHLSDLGLPRGA | -0.245
HMNGAAAEQARKQLMTALKASEFIAQDKLDEWLDALALPQEKRSAIIDAVDELDYEEAISELEN | 0.287
HMNGDWISARQEYYIRGLWDLASRAKDEASLQAMLQRIAGVTQIEWISKEKATKVILALRDIAKK | -1.6
HMNGELSQRQWQILRLIAQGLSNEQMARQLFVAPSTIKTHINHLYAKLGVRTRAEAQAIARQKLMA | -1.23
HMNGIFEYSDAKKVPSLVEIENAYRRARVNGAEKFAVIINGEYFGYNPQKRGIYKLNDGEYQIL | -0.428
HMNGKPDMTPIPAGSRNNDLHAWAYGRLLNHPDNAEAIRRDLFERGQTSGLKESELETIWQSIRRQLGGD | 0.44
HMNGKTIEVPDITEKSIAEAQLILNQKKLRYNVVDSTRFDPAYLPFSVLTQEPEAGDEVKKNRTIYITLNP | -0.183
HMNGLDSVLRNWARQTLASGGENLLGDLTDHVTRLIISEALIMTGGNRTRAAELLGLSRPTLLAKMDKLNL | -2.92
HMNGPTPEEKLAVVNAEFVRQYGDEYEELELEGEELEEYYQKALNKEDFEYDIPHLPGWDEP | -0.174
HMNHHEIIMKNIDTLLKEKNISISKLEKSLGISNGYISRLRNGKYNFSLDLLLKLAKKFKISIDYLLTDFD | -0.317
HMNHNPSIARKISREIKRGAPPESLLNLARTVNDSYYRSLSFVSIAYSIKGKKSKELFEEAISNLT | -0.107
HMNHTIEENDRVLILDPRGKKYLITVTNRVFHTNLGKLDISELIGKNYGDKIKSHMGKNFSILKPNLIDYI | -0.0314
HMNIAEIGQKVAQQRVALGISQERLAKLSDLSRSTIHHLEHGTLHEIGAAKLFKLLSLLDIQLK | -2.07
HMNIDQAFISDLERMIMPDISKYELMDIISIMENSGFTIKVEGTGNEVRQVIKPGSKLKKGQKIKIKL | -2.03
